Test results taken from article doi:10.1101/2020.08.27.268672 (bioRxiv, 2020).

Assays:
[1] = target: Rel^NTD (purified, in solution) (Bacillus subtilis 168, UniProt O54408 1-391); experiment: ITC
SEC-MALS = target: the molecule itself; experiment: SEC-MALS

Chain of Rel^NTD (purified, in solution) (O54408 1-391): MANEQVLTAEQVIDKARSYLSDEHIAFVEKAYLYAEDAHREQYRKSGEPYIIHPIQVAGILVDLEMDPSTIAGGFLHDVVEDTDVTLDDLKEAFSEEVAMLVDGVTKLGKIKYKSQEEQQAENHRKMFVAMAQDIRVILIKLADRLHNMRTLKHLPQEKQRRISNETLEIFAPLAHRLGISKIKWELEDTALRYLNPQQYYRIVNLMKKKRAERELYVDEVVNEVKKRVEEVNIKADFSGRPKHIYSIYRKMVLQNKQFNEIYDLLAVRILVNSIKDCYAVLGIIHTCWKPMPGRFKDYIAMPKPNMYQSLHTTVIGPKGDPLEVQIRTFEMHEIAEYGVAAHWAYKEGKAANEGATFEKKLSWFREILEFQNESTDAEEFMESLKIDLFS

Kd [1]: 650 nM
stoichiometry N [1]: 1
B1: DarB (natural protein, Bacillus subtilis 168)
chain: ISLQSDQLLEATVGQFMIEADKVAHVQVGNNLEHALLVLTKTGYTAIPVLDPSYRLHGLIGTNMIMNSIFGLERIEFEKLDQITVEEVMLTDIPRLHINDPIMKGFGMVINNGFVCVENDEQVFEGIFTRRVVLKELNKHIRSLNK
stoichiometry N (SEC-MALS): 2
